Measurements reported in patent US20030219457A1.

Assays:
[1] = target: Crotalus durissus terrificus venom; assay: ELISA, wells coated with 5 µg/ml C.d.t. venom; dilution 1:5
[2] = target: Crotalus durissus terrificus venom; assay: ELISA, wells coated with 5 µg/ml C.d.t. venom; dilution 1:125
[3] = target: Crotalus durissus terrificus venom; assay: ELISA, wells coated with 5 µg/ml C.d.t. venom; undiluted
[4] = target: Crotalus durissus terrificus venom; assay: ELISA, wells coated with 5 µg/ml C.d.t. venom; dilution 1:625
[5] = target: Crotalus durissus terrificus venom; assay: ELISA, wells coated with 5 µg/ml C.d.t. venom; dilution 1:3125
[6] = target: Crotalus durissus terrificus venom; assay: ELISA, C.d.t. venom-coated wells; dilution 1:25
[7] = target: Crotalus durissus terrificus venom; assay: ELISA, C.d.t. venom-coated wells; dilution 1:312,500
[8] = target: Crotalus durissus terrificus venom; assay: ELISA, C.d.t. venom-coated wells; dilution 1:3125
[9] = target: Crotalus durissus terrificus venom; assay: ELISA, C.d.t. venom-coated wells; dilution 1:62,500
[10] = target: Crotalus durissus terrificus venom; assay: ELISA, C.d.t. venom-coated wells; dilution 1:5
[11] = target: Crotalus durissus terrificus venom; assay: ELISA, wells coated with 5 µg/ml C.d.t. venom; dilution 1:25
[12] = target: Crotalus durissus terrificus venom; assay: ELISA, C.d.t. venom-coated wells; dilution 1:625
[13] = target: Crotalus durissus terrificus venom; assay: ELISA, C.d.t. venom-coated wells; dilution 1:125

How did the absorbance (ELISA as in Example 4) [1] turn out when preimmune IgY (antibody) was run?
The absorbance (ELISA as in Example 4) was < 0 OD.

What about the absorbance (ELISA as in Example 4) [2] of the same substance?
The absorbance (ELISA as in Example 4) was 0.003 OD.

What about the absorbance (ELISA as in Example 4) [3] of the same substance?
The absorbance (ELISA as in Example 4) was 0.003 OD.

And the absorbance (ELISA as in Example 4) [4]?
Its absorbance (ELISA as in Example 4) is 0 OD.

And the absorbance (ELISA as in Example 4) [5]?
Its absorbance (ELISA as in Example 4) is 0.002 OD.

And the absorbance (ELISA as in Example 4) [6]?
The absorbance (ELISA as in Example 4) was 0.016 OD.

What about the absorbance (412 nm filter) [7] of the same substance?
Its absorbance (412 nm filter) is 0.01 OD.

What about the absorbance (ELISA as in Example 4) [8] of the same substance?
Its absorbance (ELISA as in Example 4) is < 0 OD.

And the absorbance (412 nm filter) [9]?
Its absorbance (412 nm filter) is 0.001 OD.

And the absorbance (ELISA as in Example 4) [10]?
Its absorbance (ELISA as in Example 4) is < 0 OD.

What about the absorbance (ELISA as in Example 4) [11] of the same substance?
Its absorbance (ELISA as in Example 4) is 0 OD.

And the absorbance (ELISA as in Example 4) [12]?
The absorbance (ELISA as in Example 4) was < 0 OD.

And the absorbance (ELISA as in Example 4) [13]?
The absorbance (ELISA as in Example 4) was < 0 OD.
